Assay results taken from PMC8318918.

How the values were obtained:
[1] = target: His-tagged LigIIIα (full-length DNA ligase IIIα), co-expressed with TDP1 in insect cells (human); experiment: co-purification after co-expression
[2] = target: LigIIIα co-expressed with His-tagged XRCC1 and TDP1 in insect cells (human); experiment: co-purification after co-expression
[3] = target: His-tagged LigIIIβ full length (1–846) (human); experiment: SPR
LigIII_(170–755) (human) = experiment: SEC-MALS
[4] = target: His-tagged XRCC1, insect-cell expressed (human) (UniProt P18887); experiment: co-purification after co-expression
Sequence of UniProt P18887 (P18887 whole entry): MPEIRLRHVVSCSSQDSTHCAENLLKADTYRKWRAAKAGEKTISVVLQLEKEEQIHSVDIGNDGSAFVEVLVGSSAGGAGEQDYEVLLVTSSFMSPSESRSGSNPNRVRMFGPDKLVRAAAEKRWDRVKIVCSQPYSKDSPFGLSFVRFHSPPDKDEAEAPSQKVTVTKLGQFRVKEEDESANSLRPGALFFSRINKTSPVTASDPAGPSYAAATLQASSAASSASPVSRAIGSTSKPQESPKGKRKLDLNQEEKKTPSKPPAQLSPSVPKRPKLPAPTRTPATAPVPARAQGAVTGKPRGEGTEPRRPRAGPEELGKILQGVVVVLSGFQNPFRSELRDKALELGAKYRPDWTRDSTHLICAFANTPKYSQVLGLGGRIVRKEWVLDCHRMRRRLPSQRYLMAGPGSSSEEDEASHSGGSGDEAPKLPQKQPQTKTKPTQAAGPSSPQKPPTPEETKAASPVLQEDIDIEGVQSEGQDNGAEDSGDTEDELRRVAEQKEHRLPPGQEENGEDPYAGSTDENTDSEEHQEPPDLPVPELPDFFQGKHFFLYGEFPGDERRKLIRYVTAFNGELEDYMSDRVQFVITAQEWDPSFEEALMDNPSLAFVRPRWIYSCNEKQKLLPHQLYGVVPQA

stoichiometry N [1] | stoichiometry N [2] | Kd [3] | stoichiometry N (LigIII_(170–755) (human)) | stoichiometry N [4] | Substance
1 | 1 | 5.1 nM | 1 | – | Flag-tagged TDP1 (tyrosyl DNA phosphodiesterase 1), insect-cell expressed, phosphorylated (from UniProt Q9NUW8 1-608) (enzyme)
– | – | 8.8 nM | – | – | TDP1-S81E, insect-cell expressed, phosphorylated (from UniProt Q9NUW8 1-608) (enzyme)
– | – | 5.3 nM | – | – | TDP1-S81A, insect-cell expressed, phosphorylated (from UniProt Q9NUW8 1-608) (enzyme)
– | – | – | – | 1 | LigIIIα co-expressed with His-tagged XRCC1 and TDP1 in insect cells (enzyme)
